{
  "source": "paper PMC9497888",
  "data": [
    {"molecular_target": "fibrin (human) (UniProt P02671)", "sequence (P02671 36-866, chain 1 of 3)": "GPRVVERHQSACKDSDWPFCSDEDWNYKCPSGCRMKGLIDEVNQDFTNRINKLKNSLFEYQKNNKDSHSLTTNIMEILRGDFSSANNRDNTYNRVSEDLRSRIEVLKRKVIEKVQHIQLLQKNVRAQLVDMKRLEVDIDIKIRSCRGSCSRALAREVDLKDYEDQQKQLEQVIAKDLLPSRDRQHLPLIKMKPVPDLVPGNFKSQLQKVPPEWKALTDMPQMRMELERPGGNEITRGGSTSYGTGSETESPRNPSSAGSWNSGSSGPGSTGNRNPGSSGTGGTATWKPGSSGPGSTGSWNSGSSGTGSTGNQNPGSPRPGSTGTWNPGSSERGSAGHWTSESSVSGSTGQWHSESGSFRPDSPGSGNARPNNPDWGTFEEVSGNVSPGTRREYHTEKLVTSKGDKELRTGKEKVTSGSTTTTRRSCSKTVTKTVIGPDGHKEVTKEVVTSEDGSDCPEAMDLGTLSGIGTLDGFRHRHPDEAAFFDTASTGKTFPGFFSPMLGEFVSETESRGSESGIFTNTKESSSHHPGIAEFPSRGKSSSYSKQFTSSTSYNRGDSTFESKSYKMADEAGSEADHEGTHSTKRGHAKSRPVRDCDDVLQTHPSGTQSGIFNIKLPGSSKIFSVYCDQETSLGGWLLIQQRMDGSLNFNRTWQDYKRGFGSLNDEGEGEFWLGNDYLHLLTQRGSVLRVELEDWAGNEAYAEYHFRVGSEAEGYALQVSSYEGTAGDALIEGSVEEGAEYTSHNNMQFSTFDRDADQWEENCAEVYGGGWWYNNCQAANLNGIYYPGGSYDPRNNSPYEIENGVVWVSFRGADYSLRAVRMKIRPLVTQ", "sequence (P02675 45-491, chain 2 of 3, further chain)": "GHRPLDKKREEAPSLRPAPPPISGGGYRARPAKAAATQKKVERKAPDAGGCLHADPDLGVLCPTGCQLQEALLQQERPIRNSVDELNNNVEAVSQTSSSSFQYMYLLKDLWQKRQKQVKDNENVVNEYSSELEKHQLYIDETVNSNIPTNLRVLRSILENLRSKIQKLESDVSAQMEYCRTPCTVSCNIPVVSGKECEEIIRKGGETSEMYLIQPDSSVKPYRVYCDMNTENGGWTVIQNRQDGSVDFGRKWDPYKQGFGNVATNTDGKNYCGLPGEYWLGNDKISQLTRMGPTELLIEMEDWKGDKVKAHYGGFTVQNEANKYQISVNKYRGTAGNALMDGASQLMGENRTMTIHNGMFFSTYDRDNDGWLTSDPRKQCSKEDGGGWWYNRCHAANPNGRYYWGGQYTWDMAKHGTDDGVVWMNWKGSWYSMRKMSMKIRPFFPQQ", "sequence (P02679 27-453, chain 3 of 3, further chain)": "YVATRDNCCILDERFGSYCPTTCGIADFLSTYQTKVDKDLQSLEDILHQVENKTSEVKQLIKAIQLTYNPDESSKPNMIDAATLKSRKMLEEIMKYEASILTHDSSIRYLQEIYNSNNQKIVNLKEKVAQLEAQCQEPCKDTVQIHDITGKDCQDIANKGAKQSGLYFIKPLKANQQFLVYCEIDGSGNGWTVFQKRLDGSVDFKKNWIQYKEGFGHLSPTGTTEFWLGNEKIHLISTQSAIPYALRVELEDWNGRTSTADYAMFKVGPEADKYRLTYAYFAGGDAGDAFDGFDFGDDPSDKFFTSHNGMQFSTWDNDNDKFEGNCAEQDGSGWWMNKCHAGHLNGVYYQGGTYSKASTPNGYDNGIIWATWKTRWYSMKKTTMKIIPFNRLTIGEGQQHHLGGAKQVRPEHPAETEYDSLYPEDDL", "units": {"stimulation factor of S-2765 hydrolysis: Kcat/Km with fibrin cofactor (100 μg/mL) over Kcat/Km without cofactor": "fold"}, "values": [
      {"substance": "ANGlyα2+1 (DSPAα2 N155S, added N-glycosylation site N153) (from UniProt P15638 37-477) (enzyme)", "stimulation factor of S-2765 hydrolysis: Kcat/Km with fibrin cofactor (100 μg/mL) over Kcat/Km without cofactor": 3.1},
      {"substance": "QNGlyα2 (DSPAα2 N185Q-N398Q) (from UniProt P15638 37-477) (enzyme)", "stimulation factor of S-2765 hydrolysis: Kcat/Km with fibrin cofactor (100 μg/mL) over Kcat/Km without cofactor": 1.7},
      {"substance": "QNGlyα2-1 (DSPAα2 N185Q) (from UniProt P15638 37-477) (enzyme)", "stimulation factor of S-2765 hydrolysis: Kcat/Km with fibrin cofactor (100 μg/mL) over Kcat/Km without cofactor": 2},
      {"substance": "QNGlyα2-2 (DSPAα2 N398Q) (from UniProt P15638 37-477) (enzyme)", "stimulation factor of S-2765 hydrolysis: Kcat/Km with fibrin cofactor (100 μg/mL) over Kcat/Km without cofactor": 7.4},
      {"substance": "recombinant DSPAα2 (bat plasminogen activator α2), wild type (from UniProt P15638 37-477) (enzyme)", "stimulation factor of S-2765 hydrolysis: Kcat/Km with fibrin cofactor (100 μg/mL) over Kcat/Km without cofactor": 11.3}
    ]}
  ]
}
